Measured values as given in the supplement of paper PMC7125110.
± gives the standard error. For part of these data: Variants at the floor of the assay were thinned out.

B1: glmS ribozyme (parent)
chain: AUAAAAGCGCCAGAACUACAGAAAUGUAGUUGACGAGGAGGAGGUUUAUCGAAUUUUCGGCGGAUGCCUCCAAA

Legend:
Conditions in all cases: with glucosamine-6-phosphate
glucosamine-6-phosphate [1] = variants of: B1; assay: kcat; higher = faster cleavage; RNA array
Summary of the method: (§1)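 kcat and KM were obtained from weighted Michaelis–Menten fits across concentrations of kobs values. Those came from one- or two-exponential decay fits to per-tile medians normalised to baseline and to non-cleaving reference variants. The variants were barcoded ribozymes transcribed in situ by E. coli RNA polymerase on sequenced MiSeq chips and tracked through a hybridised Cy3 probe at 37 °C, with 40 μM to 10 mM glucosamine-6-phosphate in HEPES/KCl/Mg(OAc)2 buffer flowed in.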

glucosamine-6-phosphate [2] = variants of: B1; assay: self-cleavage kobs at 40 uM GlcN6P; higher = faster cleavage; RNA array
Summary of the method: as §1

glucosamine-6-phosphate [3] = variants of: B1; assay: self-cleavage kobs at 160 uM GlcN6P; higher = faster cleavage; RNA array
Summary of the method: as §1

glucosamine-6-phosphate [4] = variants of: B1; assay: self-cleavage kobs at 640 uM GlcN6P; higher = faster cleavage; RNA array
Summary of the method: as §1

glucosamine-6-phosphate [5] = variants of: B1; assay: self-cleavage kobs at 2500 uM GlcN6P; higher = faster cleavage; RNA array
Summary of the method: as §1

glucosamine-6-phosphate [6] = variants of: B1; assay: self-cleavage kobs at 10000 uM GlcN6P; higher = faster cleavage; RNA array
Summary of the method: as §1

glucosamine-6-phosphate [7] = variants of: B1; assay: KM; higher = weaker cofactor use; RNA array
Summary of the method: as §1

Row | Variant | kcat (glucosamine-6-phosphate [1]) | self-cleavage kobs at 40 uM GlcN6P (glucosamine-6-phosphate [2]) | self-cleavage kobs at 160 uM GlcN6P (glucosamine-6-phosphate [3]) | self-cleavage kobs at 640 uM GlcN6P (glucosamine-6-phosphate [4]) | self-cleavage kobs at 2500 uM GlcN6P (glucosamine-6-phosphate [5]) | self-cleavage kobs at 10000 uM GlcN6P (glucosamine-6-phosphate [6]) | KM (glucosamine-6-phosphate [7])
1 | C58G G60U | < 1e-05 s⁻¹ | < 1e-05 s⁻¹ | < 1e-05 s⁻¹ | < 1e-05 s⁻¹ | < 1e-05 s⁻¹ | – | –
2 | A39C G44A | 3.56e-05 ± 1.2e-05 s⁻¹ | – | – | – | 5.47e-05 ± 1.1e-05 s⁻¹ | 2.63e-05 ± 8.1e-06 s⁻¹ | –
3 | C8G C10A | < 1e-05 s⁻¹ | < 1e-05 s⁻¹ | < 1e-05 s⁻¹ | < 1e-05 s⁻¹ | < 1e-05 s⁻¹ | < 1e-05 s⁻¹ | –
4 | C16A A52G | 0.000129 ± 7.4e-06 s⁻¹ | – | – | 6.18e-05 ± 2.3e-05 s⁻¹ | 0.000102 ± 1.9e-05 s⁻¹ | 0.000118 ± 1.9e-05 s⁻¹ | 730 ± 180 µM
5 | A33U U54A C70A | 4.75e-05 ± 1.3e-05 s⁻¹ | – | – | 5.86e-05 ± 2e-05 s⁻¹ | – | – | –
6 | G38C G66C C70U | 1.23e-05 ± 9.7e-07 s⁻¹ | – | – | < 1e-05 s⁻¹ | – | – | –
7 | G13A G32U | 0.000303 ± 3.2e-05 s⁻¹ | – | – | 4.76e-05 ± 1e-05 s⁻¹ | 0.000147 ± 2.3e-05 s⁻¹ | 0.000221 ± 3.7e-05 s⁻¹ | 3170 ± 600 µM
8 | A39U A42C | 0.000556 ± 3.1e-05 s⁻¹ | – | 2.58e-05 ± 7.6e-06 s⁻¹ | 9.53e-05 ± 1.1e-05 s⁻¹ | 0.000273 ± 3.6e-05 s⁻¹ | 0.000419 ± 3.9e-05 s⁻¹ | 3030 ± 290 µM
9 | G29A U55A | 0.00461 ± 0.0011 s⁻¹ | 0.000165 ± 2e-05 s⁻¹ | 0.000532 ± 9.2e-05 s⁻¹ | 0.00123 ± 0.00015 s⁻¹ | 0.00332 ± 0.00066 s⁻¹ | 0.00456 ± 0.00065 s⁻¹ | 1320 ± 440 µM
10 | A53U U54C | 0.00788 ± 0.0015 s⁻¹ | 0.000577 ± 7.7e-05 s⁻¹ | 0.0012 ± 0.00025 s⁻¹ | 0.00401 ± 0.00061 s⁻¹ | 0.00897 ± 0.0018 s⁻¹ | 0.00704 ± 0.001 s⁻¹ | 619 ± 200 µM
11 | A15U U57G C58U C70A | 6.42e-05 ± 1.8e-05 s⁻¹ | – | 4.86e-05 ± 1.7e-05 s⁻¹ | 9.48e-05 ± 3.5e-05 s⁻¹ | 7.42e-05 ± 2e-05 s⁻¹ | – | –
12 | A12G A53U | 0.00085 ± 8.4e-05 s⁻¹ | – | 2.34e-05 ± 7.6e-06 s⁻¹ | 0.000112 ± 1e-05 s⁻¹ | 0.000319 ± 3e-05 s⁻¹ | 0.00058 ± 6.7e-05 s⁻¹ | 4340 ± 620 µM
13 | G32C A33G | < 1e-05 s⁻¹ | < 1e-05 s⁻¹ | < 1e-05 s⁻¹ | – | < 1e-05 s⁻¹ | – | –
14 | A6G U45A | 0.000591 ± 0.00015 s⁻¹ | – | – | – | 0.000454 ± 0.00011 s⁻¹ | 0.000455 ± 8.7e-05 s⁻¹ | –
15 | U31C G59U | < 1e-05 s⁻¹ | < 1e-05 s⁻¹ | – | < 1e-05 s⁻¹ | – | – | –
16 | U49A C71U | 1.56e-05 ± 3.2e-06 s⁻¹ | – | – | < 1e-05 s⁻¹ | – | – | –

Row | Variant | kcat (glucosamine-6-phosphate [1]) | self-cleavage kobs at 40 uM GlcN6P (glucosamine-6-phosphate [2]) | self-cleavage kobs at 160 uM GlcN6P (glucosamine-6-phosphate [3]) | self-cleavage kobs at 640 uM GlcN6P (glucosamine-6-phosphate [4]) | self-cleavage kobs at 2500 uM GlcN6P (glucosamine-6-phosphate [5]) | self-cleavage kobs at 10000 uM GlcN6P (glucosamine-6-phosphate [6]) | KM (glucosamine-6-phosphate [7])
17 | A33G C67A | < 1e-05 s⁻¹ | < 1e-05 s⁻¹ | – | – | – | < 1e-05 s⁻¹ | –
18 | G13A U45G | 8.96e-05 ± 7.9e-06 s⁻¹ | – | – | – | 3.13e-05 ± 8.3e-06 s⁻¹ | 6.32e-05 ± 1e-05 s⁻¹ | 4310 ± 840 µM
19 | C16G U47G | 0.000729 ± 0.00014 s⁻¹ | – | 7.03e-05 ± 1.6e-05 s⁻¹ | 0.000307 ± 4.8e-05 s⁻¹ | 0.000604 ± 0.0001 s⁻¹ | 0.000565 ± 0.0001 s⁻¹ | 1210 ± 400 µM
20 | A53G U56A | 0.0133 ± 0.0047 s⁻¹ | 0.000437 ± 9e-05 s⁻¹ | 0.00116 ± 0.00021 s⁻¹ | 0.00273 ± 0.00051 s⁻¹ | 0.00663 ± 0.0019 s⁻¹ | 0.0137 ± 0.0026 s⁻¹ | 1830 ± 890 µM
21 | A12U U45G | 0.0202 ± 0.0044 s⁻¹ | 0.000515 ± 6.4e-05 s⁻¹ | 0.00127 ± 0.00021 s⁻¹ | 0.00546 ± 0.0011 s⁻¹ | 0.0134 ± 0.0027 s⁻¹ | 0.0165 ± 0.0026 s⁻¹ | 1870 ± 530 µM
22 | A14G U46A | 0.0109 ± 0.0043 s⁻¹ | 0.000166 ± 3.1e-05 s⁻¹ | 0.000271 ± 7.3e-05 s⁻¹ | 0.00157 ± 0.00055 s⁻¹ | 0.0054 ± 0.001 s⁻¹ | 0.00723 ± 0.0012 s⁻¹ | –
23 | A39U G43U | 0.000561 ± 0.00011 s⁻¹ | 1.76e-05 ± 8.1e-06 s⁻¹ | 5.96e-05 ± 8.5e-06 s⁻¹ | 0.000127 ± 1.3e-05 s⁻¹ | 0.000418 ± 4.9e-05 s⁻¹ | 0.00046 ± 4.6e-05 s⁻¹ | 1770 ± 600 µM
24 | A14G C67G | 0.00362 ± 0.00046 s⁻¹ | 9.34e-05 ± 8.5e-06 s⁻¹ | 0.000388 ± 6e-05 s⁻¹ | 0.00104 ± 0.00011 s⁻¹ | 0.00164 ± 0.00033 s⁻¹ | 0.00339 ± 0.0003 s⁻¹ | 1530 ± 280 µM
25 | U31A G59A | 0.000128 ± 1.5e-05 s⁻¹ | – | – | 2.94e-05 ± 1.4e-05 s⁻¹ | 5.49e-05 ± 1.7e-05 s⁻¹ | 0.000104 ± 2.3e-05 s⁻¹ | 2710 ± 740 µM
26 | C16A G29A | 0.00235 ± 0.00058 s⁻¹ | 7.39e-05 ± 1.3e-05 s⁻¹ | 0.000175 ± 3.3e-05 s⁻¹ | 0.000549 ± 9.9e-05 s⁻¹ | 0.00127 ± 0.00024 s⁻¹ | 0.00227 ± 0.00042 s⁻¹ | 1790 ± 630 µM
27 | U31G U47G A48G | 1.96e-05 ± 7.2e-06 s⁻¹ | – | – | – | – | – | –
28 | G13C U30C | 0.000129 ± 2e-05 s⁻¹ | < 1e-05 s⁻¹ | – | 4.05e-05 ± 1.7e-05 s⁻¹ | 8.07e-05 ± 2e-05 s⁻¹ | – | 1470 ± 480 µM
29 | G38U A48C A52C C71A | < 1e-05 s⁻¹ | < 1e-05 s⁻¹ | – | – | – | < 1e-05 s⁻¹ | –
30 | A33U A42G | 0.000108 ± 7.3e-06 s⁻¹ | – | – | – | 6.02e-05 ± 1.3e-05 s⁻¹ | 8.89e-05 ± 3e-05 s⁻¹ | 2000 ± 350 µM
31 | C70A C71U | 9.41e-05 ± 4.3e-06 s⁻¹ | – | 2.83e-05 ± 1e-05 s⁻¹ | 5.75e-05 ± 1e-05 s⁻¹ | 8.22e-05 ± 1e-05 s⁻¹ | – | 384 ± 58 µM
